B1: Mab22A2, monoclonal antibody against human AMH (antibody, V domains shown)
VH: QIRLVQSGPELKKPGETVKISCKASGYSFTNYLMHWVKQAPGEALKWMGWINTNIGQPTYAEDFKGRFVFSLEASISTAFLHINSLKDEDTATYFCTSGYFGYDWYFDVWGVGTTVTVSS
VL: DIQMTQSPDSLSASVGETVTITCRASENIQNYLAWYQHKQGKSPQLLVYNAQTLANGVSSRFSGSGSGTHYSLNIHSLQPEDFGTYYCQHFWGTPRTFGGGTKLIIK
notes: the text calls the antibody IgG1a; Mouse IgG1 kappa; also called biotinylated Mab22A2; source: mouse monoclonal, previously prepared by immunisation of female BALB/c mice with human AMH precursor; hybridoma cells
B2: soluble fusion protein containing the extracellular domain of human AMHR2 and the Fc part of human IgG1 (AMHR2-Fc) (Fc fusion)
chain: PPNRRTCVFFEAPGVRGSTKTLGELLDTGTELPRAIRCLYSRCCFGIWNLTQDRAQVEMQGCRDSDEPGCESLHCDPSPRAHPSPGSTLFTCSCGTDFCNANYSHLPPPGSPGTPGSQGPQAAPGESIWMAL

Key:
[1] = molecular target: T1, ovine AMH procomplex present in serum (Ovis aries, UniProt T1SHH2); assay: ELISA; AMH of bovine, ovine or mouse serum held on plate-captured AMHR2-Fc; detected with biotinylated Mab22A2 (0.5 ug/mL) and streptavidin-HRP; pair: Mab22A2 with serum AMH; settings: one partner purified
T1 construct: anti-Müllerian hormone, ovine, N-terminal pro-domain of the procomplex; anti-Müllerian hormone, ovine, C-terminal mature domain of the procomplex; source: endogenous, serum of one ovine sample

[2] = molecular target: T2, bovine AMH procomplex present in serum (Bos taurus, UniProt P03972); assay: as above; settings: one partner purified
T2 construct: anti-Müllerian hormone, bovine, N-terminal pro-domain of the procomplex; anti-Müllerian hormone, bovine, C-terminal mature domain of the procomplex; source: endogenous, serum of one bovine sample

[3] = molecular target: T3, mouse AMH procomplex present in serum (Mus musculus, strain , UniProt P27106); assay: as above; settings: one partner purified
T3 construct: anti-Müllerian hormone, mouse, N-terminal pro-domain of the procomplex; anti-Müllerian hormone, mouse, C-terminal mature domain of the procomplex; source: endogenous, serum of one mouse sample
T3 sequence (P27106 whole entry, looked up, the tested form may be a part, one chain of several): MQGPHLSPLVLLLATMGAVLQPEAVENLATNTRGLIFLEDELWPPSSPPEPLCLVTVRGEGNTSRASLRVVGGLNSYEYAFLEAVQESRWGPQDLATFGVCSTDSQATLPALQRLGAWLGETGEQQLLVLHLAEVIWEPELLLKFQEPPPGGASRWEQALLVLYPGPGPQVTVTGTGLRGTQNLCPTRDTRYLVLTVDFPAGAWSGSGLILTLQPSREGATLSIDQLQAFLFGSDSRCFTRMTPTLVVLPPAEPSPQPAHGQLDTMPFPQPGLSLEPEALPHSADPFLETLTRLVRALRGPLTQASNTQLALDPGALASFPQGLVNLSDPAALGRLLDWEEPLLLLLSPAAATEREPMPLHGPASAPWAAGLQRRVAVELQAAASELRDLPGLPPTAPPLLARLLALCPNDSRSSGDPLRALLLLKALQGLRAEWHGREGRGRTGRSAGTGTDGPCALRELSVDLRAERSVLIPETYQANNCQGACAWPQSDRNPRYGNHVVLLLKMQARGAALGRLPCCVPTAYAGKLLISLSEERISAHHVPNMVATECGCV

[4] = molecular target: T4, human AMH procomplex (completely cleaved AMH, non-covalent complex of the N-terminal and C-terminal homodimers) (human); assay: ELISA; AMH captured on Mab10.6 coated on plates, incubated with various concentrations of AMHR2-Fc; bound AMHR2-Fc detected with anti-human Fc antibody conjugated to HRP; n = 3
T4 sequence (P03971 25-560, looked up): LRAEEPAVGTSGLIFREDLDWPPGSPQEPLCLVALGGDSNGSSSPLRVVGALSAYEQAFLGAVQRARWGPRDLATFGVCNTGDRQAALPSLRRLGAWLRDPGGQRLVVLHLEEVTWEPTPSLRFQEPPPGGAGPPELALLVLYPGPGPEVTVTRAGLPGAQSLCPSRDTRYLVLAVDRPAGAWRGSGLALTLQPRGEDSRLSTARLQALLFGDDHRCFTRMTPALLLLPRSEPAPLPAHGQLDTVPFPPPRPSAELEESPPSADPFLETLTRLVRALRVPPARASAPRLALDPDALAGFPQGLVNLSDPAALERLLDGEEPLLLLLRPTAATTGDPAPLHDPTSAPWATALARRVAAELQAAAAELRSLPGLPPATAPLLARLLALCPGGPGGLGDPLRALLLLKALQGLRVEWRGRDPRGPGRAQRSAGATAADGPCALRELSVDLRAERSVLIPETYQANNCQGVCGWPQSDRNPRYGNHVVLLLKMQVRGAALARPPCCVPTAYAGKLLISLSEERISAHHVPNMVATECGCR

Binder | binding result [1] | binding result [2] | binding result [3] | mean AUC of the ELISA curve [4]
B1 | binds | binds | binds | 
B2 |  |  |  | 75900
